# Test results from the supplement of paper PMC12764529.
# ± gives the half width of the 95% confidence interval.
# Tests used:
# [1] = folding stability dG unfold from trypsin proteolysis; higher = more stable
# In short: (§1)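 Designed mini-proteins with no cysteine and under 80 residues were kept only if AlphaFold2 dimer inter-PAE was above 15. In a PA-tagged cDNA display construct, they were digested with trypsin and chymotrypsin and then sequenced. K50 was inferred by Bayesian fitting of counts, and unfolding free energy was derived per protease or combined against a sequence-predicted unfolded-state K50 and a shared folded-state K50.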
# [2] = folding stability dG unfold from chymotrypsin proteolysis; higher = more stable
# In short: as §1
# [3] = folding stability dG unfold (combined trypsin and chymotrypsin); higher = more stable
# In short: as §1
Sequence,folding stability dG unfold [1] [kcal/mol],folding stability dG unfold [2] [kcal/mol],folding stability dG unfold [3] [kcal/mol]
SAGKKTITVPLKDLKKVLEELKKKYPNIKKVKIYVNGKEYEIKVGEKVKITEVIKNENGEEFVKIEIYKSAG [r5_130_TrROS_Hall],2.97 ± 0.17,3.41 ± 0.082,3.31 ± 0.22
SAGKKTLIIRVKIRVRRKVDGKEEEVELELVIEVEAEEDEEEARRKAEELARKLAEEYNLEIEEVEIFPSAG [r5_497_TrROS_Hall],4.18 ± 0.13,4.31 ± 0.074,4.26 ± 0.11
SAGKKYIVVVNVDFGSPEKKESAPIVLELDEDEEVSEALAKIPGLEDVKVEVYVIEAEENPELAENPGSAGG [r19_339_TrMRF],0.31 ± 0.11,1.38 ± 0.083,0.994 ± 0.2
SAGKMKIIEVKPGEEIKITIPEEGKKVKIYVYNKNGEKVEEKEVEIKPGQTLTFKIPKEDAKVIIEIEDSAG [r5_797_TrROS_Hall],1.75 ± 0.062,3.11 ± 0.039,2.82 ± 0.18
SAGKNWYIQIQIEHRDPDGKPKREIPIIIEANPGDPEAFERALEFAERIAEKLHPPGHRVEINVTLFPYSAG [r5_793_TrROS],2.73 ± 0.23,2.17 ± 0.1,2.43 ± 0.17
SAGKPGEPIKLKIRYVDPDNGEPQTFEFPIKRIEDVEIDPPGNIIITFPGDGQEITFPPNHLTEVEILSAGG [r19_416_TrROS],-0.852 ± 0.73,0.36 ± 0.24,0.0637 ± 0.18
SAGKPIIVKVSVINEDGEEEEIAEFPIPPDLLKGSIEVGDGFIIAPDGEGPTFTAIIGDKPVKIEIEGSAGG [r19_408_TrMRF],0.658 ± 0.058,1.52 ± 0.13,1.27 ± 0.13
SAGKPKELAKKIAEKLAKEFEKKHPDVKIEKVEVKKIEVNPIEGYVKIDIVMYGKNGKLIYKPKITIKSAGG [r19_53_TrMRF],3.22 ± 0.27,3.96 ± 0.083,3.63 ± 0.14
SAGKPNIVVHPEYEQEKDPGDPGQPRIREMRVRVYLPNGRPITFRYRSPEDAVDRLLKRIQENPDLLKSAGG [r19_123_TrROS],1.79 ± 0.12,2.11 ± 0.13,2.07 ± 0.19
SAGKPVLLKIEIEVKVNGKTVKLELEILVEPGETIEELLAALPGVEEVKIKIEPISLEELEELKKKKPSAGG [r19_339_TrROS_Hall],0.867 ± 0.23,1.88 ± 0.059,1.53 ± 0.3
SAGKRTIMIPFNVKPNQIRNIAKDIVEMHPGWKIKSIKVFNPNNGEPQELPLGDVPPNEPVWIKVEIEPSAG [r5_357_TrROS],2.36 ± 0.1,2.21 ± 0.05,2.29 ± 0.15
SAGKSVKLSISVNPDNNSITITLEVEFKPDEKINIPAKFYLKDKEFNANYSVTKTPDGKAIATFTIELDSAG [r5_596_TrMRF],2.67 ± 0.27,4.57 ± 0.23,3.63 ± 0.38
SAGKVEIIPIENEDGSKFLVIKVNGKLIIITENEDGSISIKIIDLKTNKIEVIEIPKKDLKKALEKILKSAG [r5_674_TrROS_Hall],3.82 ± 0.18,3.48 ± 0.12,3.59 ± 0.2
SAGKVIIIPAEKAEPELIKEILKKVPEGTEIRIAFAGPELVELLKELGFEVKPELVKPLTPEDLKKLLESAG [r5_354_TrMRF],0.747 ± 0.062,1.92 ± 0.092,1.59 ± 0.11
SAGKVVKISAPIEVLRNIPNVLELYVVGDKVYLVVPNELLVVDLDLPPLVPTVPESVPEELALLGGLLGSAG [r5_2_TrMRF],0.728 ± 0.051,1.74 ± 0.052,1.48 ± 0.13
SAGKVYRIKATAPDGSTAIIEIPENGNAKIKIFYPNGVKEITINLDPNVKIEEILEKFPNFIISSIEEESAG [r5_259_TrMRF],5.01 ± 0.8,3.95 ± 0.22,4.15 ± 0.22

Sequence,folding stability dG unfold [1] [kcal/mol],folding stability dG unfold [2] [kcal/mol],folding stability dG unfold [3] [kcal/mol]
SAGKYVTFNFPINIPPGDIKQMLNMIRDIARNLGLKPITDIEIDNIQRDDDYYRIRFEITIKVPPGDLKSAG [r5_575_TrROS],2.44 ± 0.18,4.29 ± 0.12,3.34 ± 0.43
SAGLEVEIVSVEYDEETNTVKVKVKVRNPETNEVTTLELTIKLPPPPPPVEKVEVKEVKDGKVTVTYEESAG [r5_150_TrROS_Hall],1.43 ± 0.18,0.394 ± 0.13,1.28 ± 0.48
SAGLFITVEANPNNGTMRITLYRMEPRKDGDGPKMDIEPIAEIEVPMESPEEARDKAKDKAKNLLDKFNSAG [r5_956_TrROS],1.06 ± 0.064,1.85 ± 0.14,1.58 ± 0.11
SAGLGIWRDPDMWKLEFNLLLPNGYVYKVEVTVTPDGIDVSIEPVPIPPVPTADSPEDAKEYQKQNENQSAG [r5_272_TrROS],1.06 ± 0.13,2.61 ± 0.18,2.06 ± 0.35
SAGLRLVLELELEVPPDVPPERVREAVEREVRDILGRLGIPLPPDARIVVEEVERRGRRVRFRVEVDFPSAG [r14_735_TrMRF],5.13 ± 0.32,5.08 ± 0.18,5.01 ± 0.21
SAGLSEIVKKLFPEEEIEIEVEERTLPGPPNIPVVEFDVRITFKDGRTFRARAIRYPDFVLIEVEPLEPSAG [r14_28_TrMRF],3.26 ± 0.11,3.75 ± 0.065,3.62 ± 0.11
SAGLSPQVRDWLRDLFQEEGFKVKEIDVQPHPNGQMYIKINYPNGKPIKEIPVPPGMDTPEQALKMIRKSAG [r5_352_TrROS],-0.00734 ± 0.11,0.498 ± 0.13,0.312 ± 0.07
SAGLVVTKLPGDGTLRITLPPPGAPLVLTIPLDPGNGTLSVTVTRPDGRSETYTFPGGSIDEVIERLLSAGG [r19_159_JUSTAS],2.37 ± 0.074,2.902 ± 0.021,2.72 ± 0.093
SAGMATTTELPNGFLTTYEDGTTSFIPAEPPEVPVTTVPVTSPEEAAAAVAAAGLSVEVVTADSVTAPASAG [r5_328_JUSTAS],2.06 ± 0.091,1.2 ± 0.027,1.63 ± 0.07
SAGMDDAEAEKLALEEAEKIAKEAGVPEIEVEVERTPSDRWRATIKFPKTGKTYTIELVGDEPSLVEKGSAG [r14_925_JUSTAS],1.01 ± 0.049,1.27 ± 0.2,1.1 ± 0.14
SAGMDIELVVPIESPGSPEEIEKTVEELKEKLEKLGYKVEVSREIHPVGDKLVATITIKITAPPDLPLLSAG [r5_217_JUSTAS],3.49 ± 0.28,2.31 ± 0.095,2.85 ± 0.16
SAGMDIIKELLEKNPKPKVIRMHMNPPNGYFRIQVNGKPIDLPLPPGHYEMEFVVDPKGKIEDVKPHPMSAG [r5_329_TrROS],0.0656 ± 0.15,0.51 ± 0.16,0.462 ± 0.16
SAGMDMEEAEKLAEEIAEQLAKELEKKTGIKPEKIKIEVTVTKLPDGSYLITIKATLEDKEVEKTYTIASAG [r14_226_JUSTAS],3.11 ± 0.21,2.28 ± 0.066,2.68 ± 0.12
SAGMDPDDPDYMIFINLDIKLEVEPDPDNGKPYVKLEIRITNIMVFDPDNGKMEMEPIEIEMTLPPDDISAG [r5_270_TrROS],1.3 ± 0.083,3.09 ± 0.17,2.48 ± 0.3
SAGMEEEVEERTLPDGSPVTVTTFTDPATGKRTVFVRYPETGEWEVRDEEGNLIKKYGPVSFEEAKKELSAG [r5_757_JUSTAS],1.67 ± 0.024,2.04 ± 0.064,1.97 ± 0.09
